Where no end group is shown, it is not given here. The star is where a group is joined. αGalNAc = CC(=O)N[C@@H]1[C@@H](O)[C@@H](O)[C@@H](CO)O[C@@H]1*
Biological target: T1, wild-type AM0627^A21-E506 (Akkermansia muciniphila) (UniProt B2UPI7)
T1 sequence: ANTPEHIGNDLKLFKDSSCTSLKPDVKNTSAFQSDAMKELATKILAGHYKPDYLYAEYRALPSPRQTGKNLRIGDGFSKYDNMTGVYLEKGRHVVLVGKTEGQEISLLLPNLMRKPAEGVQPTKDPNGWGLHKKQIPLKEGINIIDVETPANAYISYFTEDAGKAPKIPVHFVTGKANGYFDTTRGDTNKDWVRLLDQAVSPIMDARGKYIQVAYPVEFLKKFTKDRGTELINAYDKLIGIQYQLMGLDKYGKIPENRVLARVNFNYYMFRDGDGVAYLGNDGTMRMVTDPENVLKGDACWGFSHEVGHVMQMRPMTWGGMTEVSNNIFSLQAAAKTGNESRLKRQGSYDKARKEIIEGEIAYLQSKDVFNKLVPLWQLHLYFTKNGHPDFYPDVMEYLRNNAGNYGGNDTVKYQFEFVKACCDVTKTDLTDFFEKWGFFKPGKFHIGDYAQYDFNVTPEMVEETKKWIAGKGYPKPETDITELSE

## TEAQT(αGalNAc)T(αGalNAc)PPPA-NH2 [P2, bis-Tn glycopeptide]
  cleavage of P2 (500 μM) by 0.4 μM enzyme at 37 °C, MALDI-TOF time course, printed for 5 and 15 min: 35%
  specific activity with P2 (500 μM), from the MALDI-TOF time course: 1.2 U/mg

— paper PMC9325726
